PMC6179999

How the values were obtained:
P27467 [1] = experiment: AUC; AUC-FDS; conditioned medium of L cells secreting GFP-Wnt3a co-cultured with HEK293 cells secreting mouse sFRP2
P27467 [2] = experiment: AUC; AUC-FDS of GFP-Wnt3a in culture medium with serum from which afamin was immuno-depleted before the cultivation; peak areas normalised by the whole area
P27467 [3] = experiment: AUC; AUC-FDS of GFP-Wnt3a in culture medium with mock-treated serum; peak areas normalised by the whole area

GFP-tagged mouse Wnt3a secreted from stably transformed mouse L cells
relative area of HMW complex peaks, with sFRP2 (P27467 [1]): relative area of HMG peaks was decreased from 46.4 ± 0.8% to 33.6 ± 2.9% by the addition of sFRP2 | relative area of the HMW peaks, afamin pre-depleted serum (P27467 [2]): that of the HMW peaks was increased from 51.1 ± 4.8% to 69.6 ± 1.2% | relative area of the HMW peaks, mock-treated serum (P27467 [3]): that of the HMW peaks was increased from 51.1 ± 4.8% to 69.6 ± 1.2%
